According to patent US20250018014A1, “METHOD FOR TREATING AND/OR PREVENTING REGNASE-1-RELATED DISEASE” (OSAKA UNIVERSITY, priority 2018, published 2025):
No end group written: not given here.

T1: Peptide 2 (AFPPREYWSEPYPLPPPTC-NH2), biotin-conjugated (human, also: biotin-conjugated, position not given here)
T1 peptide: AFPPREYWSEPYPLPPPTC-NH2

T2: FL_Reg1 (human full-length Regnase-1) (Homo sapiens, UniProt Q5D1E8)
T2 construct: made in house; host or cells: Expi293 cells
T2 sequence (Q5D1E8 1-599): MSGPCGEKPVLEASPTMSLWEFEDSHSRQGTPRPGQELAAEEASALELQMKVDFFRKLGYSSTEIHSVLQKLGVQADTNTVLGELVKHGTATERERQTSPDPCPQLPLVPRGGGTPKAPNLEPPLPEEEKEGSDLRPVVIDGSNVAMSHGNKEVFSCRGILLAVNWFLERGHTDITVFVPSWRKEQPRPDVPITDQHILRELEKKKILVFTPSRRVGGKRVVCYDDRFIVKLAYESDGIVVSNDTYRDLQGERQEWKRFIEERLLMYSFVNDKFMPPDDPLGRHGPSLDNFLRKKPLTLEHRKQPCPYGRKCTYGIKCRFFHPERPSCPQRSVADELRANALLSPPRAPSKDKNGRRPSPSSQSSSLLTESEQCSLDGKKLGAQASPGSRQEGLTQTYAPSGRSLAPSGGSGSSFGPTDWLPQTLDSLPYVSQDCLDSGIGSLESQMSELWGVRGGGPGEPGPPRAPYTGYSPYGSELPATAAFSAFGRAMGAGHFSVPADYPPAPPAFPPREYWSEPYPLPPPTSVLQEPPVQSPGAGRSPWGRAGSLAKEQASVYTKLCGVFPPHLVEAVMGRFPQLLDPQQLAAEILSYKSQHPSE

T3: Regnase-1 phosphorylation by TBK1 (Homo sapiens, UniProt Q5D1E8)
T3 construct: GST (N, cleaved yes); made in house; host or cells: Expi293 cells
T3 sequence (Q5D1E8 1-599): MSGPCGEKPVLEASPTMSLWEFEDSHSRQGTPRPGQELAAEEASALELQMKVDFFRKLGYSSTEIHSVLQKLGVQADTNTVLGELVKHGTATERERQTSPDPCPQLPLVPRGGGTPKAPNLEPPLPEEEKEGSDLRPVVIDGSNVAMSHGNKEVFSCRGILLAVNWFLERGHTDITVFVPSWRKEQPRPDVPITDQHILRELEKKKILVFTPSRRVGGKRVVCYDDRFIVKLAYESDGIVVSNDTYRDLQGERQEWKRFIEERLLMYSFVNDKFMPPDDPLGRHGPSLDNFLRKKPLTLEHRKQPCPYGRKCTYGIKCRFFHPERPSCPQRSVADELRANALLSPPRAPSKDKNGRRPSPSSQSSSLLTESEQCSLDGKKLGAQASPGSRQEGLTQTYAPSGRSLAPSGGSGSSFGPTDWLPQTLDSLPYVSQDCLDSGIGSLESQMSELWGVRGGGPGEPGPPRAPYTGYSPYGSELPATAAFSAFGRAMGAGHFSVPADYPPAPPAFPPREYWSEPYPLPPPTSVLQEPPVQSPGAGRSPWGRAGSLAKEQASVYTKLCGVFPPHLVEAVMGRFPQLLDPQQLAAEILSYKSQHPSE


What was measured:
[1] = target: T1, Peptide 2 (AFPPREYWSEPYPLPPPTC-NH2), …; assay: flow cytometry of streptavidin beads carrying the biotinylated antigen, anti-rabbit IgG Alexa488
Description: (§1) These beads were mixed with each anti-Regnase-1 antibody, and they were allowed to react. Thereafter, Anti-Rabbit IgG1 Alexa488 (molecular probes, A21244) was mixed and reacted, and analysis was performed with iQue screener PLUS (intellicyt). Data was analyzed with FlowJo ver10.

[2] = target: T4, Peptide 2 ([…]-NH2), partial peptide of human Regnase-1 (Homo sapiens, UniProt Q5D1E8); assay: Binding of anti-non-phosphorylated Regnase-1 peptide antibodies to bead-bound Peptide 2 (iQue screener); details: streptavidin-immobilized beads; histograms FIG. 32
T4 construct: made in house; host or cells: chemical synthesis
Description: (§2) • Biotin-Conjugated FL_Reg1, Biotin-Conjugated Peptide • […], biotin-conjugated peptide • AFPPREYWSEPYPLPPPTC-NH2, and biotinylated BSA (Sigma, A8549) were each bound to streptavidin-immobilized beads.
as §1

[3] = target: T2, FL_Reg1 (human full-length Regnase-1); assay: Binding of anti-non-phosphorylated Regnase-1 peptide antibodies to bead-bound full length human Regnase-1 (iQue screener); details: streptavidin-immobilized beads; histograms FIG. 32
Description: as §2, §1

[4] = target: T3, Regnase-1 phosphorylation by TBK1; assay: Inhibitory activity of anti-Regnase-1 antibodies against Regnase-1 phosphorylation by TBK1 (Phos-tag gel, western blotting); type: biochemical; details: antibody at final concentrations of 16.7 μg/mL and 5.0 μg/mL; relative to Control group
Description: To a solution (ATP buffer) containing Kinase Assay Buffer III (manufactured by SignalChem) supplemented with 2 mM DTT, 100 μM sodium vanadate, 2 mM manganese chloride, and 15 μM ATP, dephosphorylated Regnase-1 was mixed at 150 nM. Four microliters of this solution and 4 μL of HEPES Buffered Saline containing 50 μg/mL or 15 μg/mL of anti-Regnase-1 antibody were mixed, and this was allowed to react for one hour. This reaction solution was mixed with 4 μL of ATP buffer containing 150 nM of each kinase (IKKβ or TBK1), and further reacted for one hour. After the reaction, 4 μL of 4× Laemmli Sample buffer (manufactured by Bio-Rad) was added and this mixture was incubated at 95° C. for five minutes for protein denaturation treatment. This sample was ice-cooled for three minutes, and 10 μL of it was added to SuperSep Phos-tag 7.5% 17 wells (manufactured by Wako) placed in EasySeparator (manufactured by Wako). As a marker, 10 μL of WIDE-VIEW Prestained Protein Size Marker III (manufactured by Wako) was added, and the EasySeparator was filled with Tris-Glycine SDS buffer (manufactured by Takara). After electrophoresis at 175 V for 70 minutes, this was washed with 10% Tris-Glycine SDS buffer containing 5 mM EDTA and 20% MeOH for 10 minutes. After two further washings, washing was performed with 10% Tris-Glycine SDS buffer containing 20% MeOH for ten minutes. The washed gel was placed in the Trans-Blot Turbo Transfer Pack (manufactured by Bio-Rad), and transferred using the BioRad Transfer Turbo (manufactured by Bio-Rad). […] Chemiluminescence was detected using ImageQuant LAS4000 mini (manufactured by GE Healthcare).
A band for phosphorylated Regnase-1 was detected due to treatment with each kinase (FIG. 33A). Band densities were measured with Image Quant-TL (manufactured by GE Healthcare). The relative value for the band density of the sample to which each compound was added was calculated, considering the band density of the kinase-added sample of the Control group, to which no compound was added, as 1. […]

| Molecule | binding result [1] | binding to Peptide 2 compared with biotinylated BSA [2] | binding to FL_Reg1 compared with biotinylated BSA [3] | density of the phosphorylated Regnase-1 band in TBK1 treatment [4] |
| --- | --- | --- | --- | --- |
| REB0007 (antibody, V domains shown, Cloned from immunized rabbits, expressed in HEK293 cells, purified by Protein A; also called anti-Regnase-1 antibody; anti-non-phosphorylated Regnase-1 peptide antibody) VH: QEQLEESGGDLVKPEGSLTLTCTASGFSFNSRYWICWVRQAPGKGLEWIGCIVSGDSNTYYASWAKGRFTISKTSSTTVTLQMTSLTAADTATYFCARWYTSSRPGLWGPGTLVTVSS VL: DVVMTQTPASVSEPVGGTVTIKCQASQSISSYLSWYQQKPGQPPKLLIYSATNLASGVSSRFKGSRFGTEFTLTISDLECDDAATYYCQCSYYVSGFAFGGGTEVVVKG | binds |  |  |  |
| REB0022 (antibody, V domains shown, Cloned from immunized rabbits, expressed in HEK293 cells, purified by Protein A; also called anti-Regnase-1 antibody; anti-non-phosphorylated Regnase-1 peptide antibody) VH: QEQLEESGGDLVKPEGSLTLTCTASGGSFSSRYWMCWVRQAPGKGLEWIACIVIGDRNNYYASWAKGRFTISKTSSTTVTLQMTSLTAADTATYFCARWHSSTAPSLWGPGTLVTVSS VL: DVVMTQTPASVSEPVGGTVTINCQASQSISSYLSWYQQKPGQPPKLLIYKASTLASGVSSRFKGSGSGTEFTLTISDLECADAATYYCQCSYYVSGFVFGGGTEVVVKG | binds |  |  |  |
| REB0014: anti-Regnase-1 antibody; heavy chain SEQ ID NO: 26, light chain SEQ ID NO: 27 (antibody) heavy: QSLEESGGGLVKPGGTLTLTCKASGIDFSSYYYMCWVRQAPGKGLEWIACIYSGDGSSYYVSWANGRFTISKTSSATVTLQMTSLTAADTATYFCARDLGNLWGPGTLVTVSSGQPKAPSVFPLAPCCGDTPSSTVTLGCLVKGYLPEPVTVTWNSGTLTNGVRTFPSVRQSSGLYSLSSVVSVTSSSQPVTCNVAHPATNTKVDKTVAPSTCSKPTCPPPELLGGPSVFIFPPKPKDTLMISRTPEVTCVVVDVSQDDPEVQFTWYINNEQVRTARPPLREQQFNSTIRVVSTLPITHQDWLRGKEFKCKVHNKALPAPIEKTISKARGQPLEPKVYTMGPPREELSSRSVSLTCMINGFYPSDISVEWEKNGKAEDNYKTTPAVLDSDGSYFLYNKLSVPTSEWQRGDVFTCSVMHEALHNHYTQKSISRSPGK light: QVLTQTPASVSAAVGGTVTINCQASQSVYKNSGLSWFQQKPGQSPKRLIYSASTLDSGVPSRFKGSGSGTQFTLTISDVQCDDAATYYCLGIYVCSSVDCGAFGGGTEVVVKGDPVAPTVLIFPPAADQVATGTVTIVCVANKYFPDVTVTWEVDGTTQTTGIENSKTPQNSADCTYNLSSTLTLTSTQYNSHKEYTCKVTQGTTSVVQSFNRGDC |  | bound more strongly | bound more strongly | decreased |
| REB0014 (antibody, V domains shown, Cloned from immunized rabbits, expressed in HEK293 cells, purified by Protein A; also called anti-Regnase-1 antibody; anti-non-phosphorylated Regnase-1 peptide antibody) VH: QSLEESGGGLVKPGGTLTLTCKASGIDFSSYYYMCWVRQAPGKGLEWIACIYSGDGSSYYVSWANGRFTISKTSSATVTLQMTSLTAADTATYFCARDLGNLWGPGTLVTVSS VL: QVLTQTPASVSAAVGGTVTINCQASQSVYKNSGLSWFQQKPGQSPKRLIYSASTLDSGVPSRFKGSGSGTQFTLTISDVQCDDAATYYCLGIYVCSSVDCGAFGGGTEVVVKG | binds |  |  |  |
| REB0022: anti-Regnase-1 antibody; heavy chain SEQ ID NO: 28, light chain SEQ ID NO: 29 (antibody) heavy: QEQLEESGGDLVKPEGSLTLTCTASGGSFSSRYWMCWVRQAPGKGLEWIACIVIGDRNNYYASWAKGRFTISKTSSTTVTLQMTSLTAADTATYFCARWHSSTAPSLWGPGTLVTVSSGQPKAPSVFPLAPCCGDTPSSTVTLGCLVKGYLPEPVTVTWNSGTLTNGVRTFPSVRQSSGLYSLSSVVSVTSSSQPVTCNVAHPATNTKVDKTVAPSTCSKPTCPPPELLGGPSVFIFPPKPKDTLMISRTPEVTCVVVDVSQDDPEVQFTWYINNEQVRTARPPLREQQFNSTIRVVSTLPITHQDWLRGKEFKCKVHNKALPAPIEKTISKARGQPLEPKVYTMGPPREELSSRSVSLTCMINGFYPSDISVEWEKNGKAEDNYKTTPAVLDSDGSYFLYNKLSVPTSEWQRGDVFTCSVMHEALHNHYTQKSISRSPGK light: DVVMTQTPASVSEPVGGTVTINCQASQSISSYLSWYQQKPGQPPKLLIYKASTLASGVSSRFKGSGSGTEFTLTISDLECADAATYYCQCSYYVSGFVFGGGTEVVVKGDPVAPTVLIFPPAADQVATGTVTIVCVANKYFPDVTVTWEVDGTTQTTGIENSKTPQNSADCTYNLSSTLTLTSTQYNSHKEYTCKVTQGTTSVVQSFNRGDC |  | bound more strongly | bound more strongly | decreased |
| REB0007: anti-Regnase-1 antibody; heavy chain SEQ ID NO: 24, light chain SEQ ID NO: 25 (antibody) heavy: QEQLEESGGDLVKPEGSLTLTCTASGFSFNSRYWICWVRQAPGKGLEWIGCIVSGDSNTYYASWAKGRFTISKTSSTTVTLQMTSLTAADTATYFCARWYTSSRPGLWGPGTLVTVSSGQPKAPSVFPLAPCCGDTPSSTVTLGCLVKGYLPEPVTVTWNSGTLTNGVRTFPSVRQSSGLYSLSSVVSVTSSSQPVTCNVAHPATNTKVDKTVAPSTCSKPTCPPPELLGGPSVFIFPPKPKDTLMISRTPEVTCVVVDVSQDDPEVQFTWYINNEQVRTARPPLREQQFNSTIRVVSTLPITHQDWLRGKEFKCKVHNKALPAPIEKTISKARGQPLEPKVYTMGPPREELSSRSVSLTCMINGFYPSDISVEWEKNGKAEDNYKTTPAVLDSDGSYFLYNKLSVPTSEWQRGDVFTCSVMHEALHNHYTQKSISRSPGK light: DVVMTQTPASVSEPVGGTVTIKCQASQSISSYLSWYQQKPGQPPKLLIYSATNLASGVSSRFKGSRFGTEFTLTISDLECDDAATYYCQCSYYVSGFAFGGGTEVVVKGDPVAPTVLIFPPAADQVATGTVTIVCVANKYFPDVTVTWEVDGTTQTTGIENSKTPQNSADCTYNLSSTLTLTSTQYNSHKEYTCKVTQGTTSVVQSFNRGD |  | bound more strongly | bound more strongly | decreased |
